T1: EB1-GFP (C-terminally EGFP-His-tagged human EB1) (human), Q15691
T1 chain: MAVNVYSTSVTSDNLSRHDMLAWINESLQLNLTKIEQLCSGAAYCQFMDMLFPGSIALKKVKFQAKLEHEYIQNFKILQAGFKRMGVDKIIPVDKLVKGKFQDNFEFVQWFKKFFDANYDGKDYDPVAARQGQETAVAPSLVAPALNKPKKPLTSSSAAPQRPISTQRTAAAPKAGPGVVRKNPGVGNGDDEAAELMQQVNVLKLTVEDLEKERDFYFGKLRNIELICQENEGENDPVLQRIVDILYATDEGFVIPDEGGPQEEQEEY

T2: EB1-GFP[A206K] (human), Q15691
T2 chain: T1 chain

B1: EB1-GFP (C-terminally EGFP-His-tagged human EB1), Q15691 1-268 (natural protein)
chain: T1 chain
B2: EB1-GFP[A206K], Q15691 1-268 (natural protein)
chain: T1 chain

Experiments:
Settings in all cases: remark: other sources report otherwise
[1] = target: T1, EB1-GFP (C-terminally EGFP-His-tagged …); assay: SEC-MALS; Superdex 200 10/30 with in-line multi-angle light scattering; 1 to 4 mg/ml injected in 100 µl (about 1 µM at the peak); 20 mM Tris-HCl pH 7.5, 300 mM NaCl, 2 mM DTT; room temperature; single experiments
[2] = target: T1, EB1-GFP (C-terminally EGFP-His-tagged …); assay: AUC; fluorescence sedimentation velocity (GFP signal at 488 nm), 22°C; dilution series from about 500 to about 0.5 nM (monomer equivalents); 20 mM Tris-HCl pH 7.5, 300 mM NaCl, 0.2 mg/ml BSA, 2 mM DTT or 0.1 mM TCEP; samples incubated 16 hours at 22°C; dimer to monomers; apparent Kd
[3] = target: T2, EB1-GFP[A206K] (human), Q15691; assay: as above

Binder	stoichiometry N [1]	stoichiometry N [2]	stoichiometry N [3]
B1	2	2	
B2			2

— paper PMC3765442
